Results on 3 molecules are retold here after article PMC3514788 (The Journal of Cell Biology, 2012).

First the molecules themselves.
B1: Drg1 (enzyme)
chain: MAPKSSSSGSKKKSSASSNSADAKASKFKLPAEFITRPHPSKDHGKETCTAYIHPNVLSSLEINPGSFCTVGKIGENGILVIARAGDEEVHPVNVITLSTTIRSVGNLILGDRLELKKAQVQPPYATKVTVGSLQGYNILECMEEKVIQKLLDDSGVIMPGMIFQNLKTKAGDESIDVVITDASDDSLPDVSQLDLNMDDMYGGLDNLFYLSPPFIFRKGSTHITFSKETQANRKYNLPEPLSYAAVGGLDKEIESLKSAIEIPLHQPTLFSSFGVSPPRGILLHGPPGTGKTMLLRVVANTSNAHVLTINGPSIVSKYLGETEAALRDIFNEARKYQPSIIFIDEIDSIAPNRANDDSGEVESRVVATLLTLMDGMGAAGKVVVIAATNRPNSVDPALRRPGRFDQEVEIGIPDVDARFDILTKQFSRMSSDRHVLDSEAIKYIASKTHGYVGADLTALCRESVMKTIQRGLGTDANIDKFSLKVTLKDVESAMVDIRPSAMREIFLEMPKVYWSDIGGQEELKTKMKEMIQLPLEASETFARLGISAPKGVLLYGPPGCSKTLTAKALATESGINFLAVKGPEIFNKYVGESERAIREIFRKARSAAPSIIFFDEIDALSPDRDGSSTSAANHVLTSLLNEIDGVEELKGVVIVAATNRPDEIDAALLRPGRLDRHIYVGPPDVNARLEILKKCTKKFNTEESGVDLHELADRTEGYSGAEVVLLCQEAGLAAIMEDLDVAKVELRHFEKAFKGIARGITPEMLSYYEEFALRSGSSS
B2: GST-Nup116 fragment from the N terminus to residue 172 (domain or fragment)
chain: MFGVSRGAFPSATTQPFGSTGSTFGGQQQQQQPVANTSAFGLSQQTNTTQAPAFGNFGNQTSNSPFGMSGSTTANGTPFGQSQLTNNNASGSIFGGMGNNTALSAGSASVVPNSTAGTSIKPFTTFEEKDPTTGVINVFQSITCMPEYRNFSFEELRFQDYQAGRKFGTSQN

Data set [1] has as its target GST-Rlp24C (S. cerevisiae) (UniProt Q07915). The data set can be described thus: SPR. In general terms: Surface plasmon resonance follows binding to a sensor surface in real time, without labels.
Data set [2] concerns the molecule itself.
The data set “Drg1” deals with B1. As to the kind of experiment: pull-down.

GST-Rlp24C (S. cerevisiae), sequence (Q07915 147-199): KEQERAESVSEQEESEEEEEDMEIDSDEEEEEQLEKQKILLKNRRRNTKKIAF

In data set [1], “Drg1EQ1 (from UniProt P32794 1-780) (enzyme)” registered a fold RU against the wild-type and EQ2 proteins of 4 fold; a kon2 (two-state reaction) of 0.011 s⁻¹. Usually stoichiometry N stands for a count of units in the complex or per binding partner. As for B1, the “stoichiometry N” value in data set [2] worked out at 6. For B2, the binding result with Drg1 is reported as “binds”.
